Patent US20070031442A1

How the values were obtained:
[1] = target: soluble CD8αα (human) (UniProt P01732); assay: surface plasmon resonance
[2] = target: soluble CD8αα (human) (UniProt P01732); assay: method not given
[3] = target: soluble CD8αα (human) (UniProt P01732); assay: surface plasmon resonance with sCD8αα wt; mean KD (n=3) printed over the bar, error bar drawn; sheet caption 'HLA A*0201 [..] tetramers'
[4] = target: soluble CD8αα (human) (UniProt P01732); assay: surface plasmon resonance, biotinylated pMHCI monomer

Kd [1] [µM]	Kd [2] [µM]	Kd [3] [µM]	Kd [4] [µM]	Substance
102				245A substituted HLA A*68011 biotinylated pMHCI (from UniProt P61769 21-119) (peptide-MHC)
	< 5			A2Kb chimeric class I pMHCI (HLA A2 with the α3 domain of murine H-2K^b) (from UniProt P61769 21-119) (peptide-MHC)
	128	128	135	wild type HLA A*0201 biotinylated pMHCI monomer (from UniProt P61769 21-119) (peptide-MHC)
980				wild type HLA A*68011 biotinylated pMHCI (from UniProt P61769 21-119) (peptide-MHC)
